Test results: a protein production outcome set (Wang et al. 2014)

Assay: label from the status in PepcDB records
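Also: failed if final PepcDB status was selected cloned or expressed and not failed if soluble or beyond.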

Row | Sequence | protein production
1 | MDSKDESSHVWPTSAEHEQNAAQVHFVPDTGTVAQIVYTDDQVRPPQQVVYTADGASYTSVDGPEHTLVYIHPVEAAQTLFTDPGQVAYVQQDATAQQASLPVHNQVLPSIESVDGSDPLATLQTPLGRLEAKEEEDEDEDEDTEEDEEEDGEDTDLDDWEPDPPRPFDPHDLWCEECNNAHASVCPKHGPLHPIPNRPVLTRARASLPLVLYIDRFLGGVFSKRRIPKRTQFGPVEGPLVRGSELKDCYIHLKVSLDKGDRKERDLHEDLWFELSDETLCNWMMFVRPAQNHLEQNLVAYQYGHHVYYTTIKNVEPKQELKVWYAASYAEFVNQKIHDISEEERKVLREQEKNWPCYECNRRFISSEQLQQHLNSHDEKLDVFSRTRGRGRGRGKRRFGPGRRPGRPPKFIRLEITSENGEKSDDGTQDLLHFPTKEQFDEAEPATLNGLDQPEQTTIPIPQLPQETQSSLEHEPETHTLHLQPQHEESVVPTQSTLTADDMRRAKRIRLELQNAALQHLFIRKSFRPFKCLQCGKAFREKDKLDQHLRFHGREGNCPLTCDLCNKGFISSTSLESHMKLHSDQKTYSCIFCPESFDRLDLLKDHVAIHINDGYFTCPTCKKRFPDFIQVKKHVRSFHSEKIYQCTECDKAFCRPDKLRLHMLRHSDRKDFLCSTCGKQFKRKDKLREHMQRMHNPEREAKKADRISRSKTFKPRITSTDYDSFTFKCRLCMMGFRRRGMLVNHLSKRHPDMKIEEVPELTLPIIKPNRDYFCQYCDKVYKSASKRKAHILKNHPGAELPPSIRKLRPAGPGEPDPMLSTHTQLTGTIATPPVCCPHCSKQYSSKTKMVQHIRKKHPEFAQLSNTIHTPLTTAVISATPAVLTTDSATGETVVTTDLLTQAMTELSQTLTTDYRTPQGDYQRIQYIPVSQSASGLQQPQHIQLQVVQVASATSPHQSQQSTVDVGQLHDPQPYPQHAIQVQHIQVSEPTASAPSSAQVSGQPLSPSAQQAQQGLSPSHIQGSSSTQGQALQQQQQQQQNSSVQHTYLPSAWNSFRGYSSEIQMMTLPPGQFVITDSGVATPVTTGQVKAVTSGHYVLSESQSELEEKQTSALSGGVQVEPPAHSDSLDPQTNSQQQTTQYIITTTTNGNGSSEVHITKP | failed
2 | MLTHYAALRASDRETFLIIELGGLGGRMGLVFVVMIVVLLYAPVHVPTYVGTLLGLLFVSIAFEIWMIVRRMRQDGLMARD | failed
3 | MCPEFQRKAAGAPRMGAMLARCVLTAALALQAAAAARAVEIEIGVASRGVVDGLEFVQFSADERTMATTHWGNVVHLWDLKTLRVRSSVSVANRDFDFDLSPDGRALAVWNEEGKGEIELYDTDNGQPARALPAPRLPQGESRRGRSLVYRDDGTLEFVSHGWIGGHARKAYLLAVPAGQPRAAETPLPALVNSVAFRKSAVMDQGRLLLAGVDGADDELAIMDIASGRMLAREPGFRIASYAADARRAVFVEADGKQRILAFDFSSRSLSTLPRWTGSGKFQPYRFVAGTRFLVLAPDEPDASTRRAAPGIYDLQTRRLHRLPPDADPGSIDVWGATASYVLCNPDHTACQAEVADLAISRKLGTFAVQPSADFRTWISPSGSMVVVGGADDGTMMVWSVKEQRVIGPN | failed
4 | MQGQWGYVAISFIIGIAIAFSSSVIWLTCCLVLNVFFCLYRTPRKTFFYCMIACLSGAMYTTYVQGQNNPLGDSYEATRGVIHNTPLINGDRLSFQVEDQNKNIVQLSYKMKSALEKKQMRQLHAGVSCVFEGERKEPQIARNFHGFNYRDYLYKQNIHFILDATYISECHKTSLSLVQWILLLRQQAISEVAEMFPEQSGAFMNALVFGDRQQMTFEVEEQYQQFGLVHLLAISGSHIVLLMVIVYFILLRSGVTREVATVCLIFCIPLYMILAGASPSVIRASITGVFMLIAFMCSIRLSSLDALSITAICMLIFDPYLVFNIGFQFSFVGSFALLLSTPLLLESGNGVIRNSIYISFISQLVSTPILLYHFGYFSPYSIFLNILYVPFLSLVVLSCSIVILICIPVIPFLAKRLANVLSIGLNLSNDFLSYCENLPFTRLNFGQTSILLVALYCVSIISILMVWERRMAKGILFISAGVFLFISTCHYVYPYFRESGSVTFLDVGQGDAILIRLPYDQEIYLIDTGGTILPNKEEWQRKKHEFSVGNDILIPYLQKEGIKKIDKLIITHGDADHIGAAQQLLSNITVKEVVFGRKEQDAELEKIVKKQALEKKVKIREVREGESWSINGAEFFVLAPTGKESSENNASIVMLAKLGGLTWLFTGDLEEEGEKFLVATYPELRADVLKVAHHGSNTSSTTPFLSVVQPNIAVISVGERNRYGHPHKDVIERFEKRGIEIWRTDKQGAISYVFKGENGTFRSKITYDETHNR | failed
5 | MAVLSMLGIIDAKPKVGYFYLGQYHASIGTSHFEKMTVSEIMGIPLTVHQKDSVYDVIVHIFMEDAGCAFILDDDDFLCGVVSRKDLLKISIGGGDLSKMPIGMVMTRMPHVTTVLENESLFAAADKLVSRKVDSLPVVRHDKQYPEKFKVIGKLSKTILASLFLEIRDY | failed
6 | LNDLKESSNNRKARVLYDYDAANSTELSLLADEVITVFSVVGMDSDWLMGERGNQKGKVPITYLELLN | not failed
7 | QKNPDSYNGAVRENYTWSQDYTDLEVRVPVPKHVVKGKQVSVALSSSSIRVAMLEENGERVLMEGKLTHKINTESSLWSLEPGKCVLVNLSKVGEYWWNAILEGEEPIDID | not failed
8 | MGHHHHHHSHMSIPSSQYGFVFNKQSGLKLRNDLPVHKPKAGQLLLKVDAVGLCHSDLHVIYEGLDCGDNYVMGHEIAGTVAAVGDDVINYKVGDRVACVGPNGCGGCKYCRGAIDNVCKNAFGDWFGLGYDGGYQQYLLVTRPRNLSRIPDNVSADVAAASTDAVLTPYHAIKMAQVSPTSNILLIGAGGLGGNAIQVAKAFGAKVTVLDKKKEARDQAKKLGADAVYETLPESISPGSFSACFDFVSVQATFDVCQKYVEPKGVIMPVGLGAPNLSFNLGDLALREIRILGSFWGTTNDLDDVLKLVSEGKVKPVVRSAKLKELPEYIEKLRNNAYEGRVVFNP | not failed
9 | MYLKARQDELTESTIQSQEYRLEAFEQFCREEGIENLNDLSGRDLYAYRVWRREGNGKGRDEIEPITLRGQLATVRSFLRFAAEVDAVPEDLRTKVPLPTISNAGEVSASTLDPERADVILDYLQMYKYASRVHVIALLLWHTGARMGAIRGLDIDDCELEQDNPGIQFVHRPQTDTPLKNGEKGQRWNAISDHVANVLQDYIDGPREPVFDEHGRRPLVTTPQGRASTSTFRTTMYRVTRPCWRGAECPHDRDPEECEATSNRKASTCPSARSPHDVRSGRVTAYRREDVPRRVVSDRLNASDQILDKHYDRRGEREKSEQRRDYLPEV | failed
10 | MEFTAEQLSQYNGTDESKPIYVAIKGRVFDVTTGKSFYGSGGDYSMFAGKDASRALGKMSKNEEDVSPSLEGLTEKEINTLNDWETKFEAKYPVVGRVVS | not failed
11 | MREGSCPRLARCPGANWGHGRILHTRLHLASLPRPCYFFVTAYINGRETITASCKRSGVSPIPFRPMSPDFPLAPLDLAIIVGYFAVVGIIGYVVAQRIESGEDLFLAGRTLTWGTIGFSLFASNISSTTLIGLAGDAYRTGIAVSNYEWMAGIVLVFIAVFFVPFFIRSGLTTIPEYLEKRFDVRSRKYFSGLTIFTSVIIDTAGGIYAGTLVIKTFFPDLIPGMGPEMDFYVTCFILALIAGVYTAAGGLAAVVYTDILQAVILLVGSVFIAGITFAEFDFSWAQATAQLPEGHLSLMRPMGAEGLPWLGTLVGVPILGFYYWGLNQYIVQRILGARDLDNARWGAMLGGLLKLLPLFIMVLPGAFALQLYPDLGNPDQVFPTLVTDLLPVGIVGLVMAGLIAAIMSTIDSTLNSASTLITIDFVKPRWPDLTPQQVGTVGRVTTIILMLFAAVWAPQIREFPGLWSYIQSVLSYLVPPVVAVFLLGIFWPRTNGSGAFATLLGGHALSIAVFLCAQDGLLFADAPIDLHFTIIAGILTALCLGMLVAFSLTLGPPPAEEEIDDLTWANRVLETGPAMAWYKNYRVHAATVLALTAVMLVVFW | failed
12 | MNSQEQRGSFYAILSGFLYGFIGYFGISAIHGDLSASNMLFWRFLISSIFILIVLIPQLKNINDTYKSMFTAFLSGVLYYGLSTLLYFYASLYIGSGLSMVIFFTYPVIIMVFNYFFYSQTIPKIYYLAISVILIGMALLIDVNEIAFDLWGIFLGLASAFFYACYIVSSKNNEISPNVSTLMVCLGCMTTSLIVACLDHTFKVPTSFPVWLNLFGIGLVATVIPILLMLHSLKYISSEKASILSVLEPVFVVIFGVVLLGEELKPWHALGIVLVLAGALITLFSHRINLNQWLGAIYKS | failed
13 | MTRNDSGDLISRNDSTNHMNTTQPQKMLPEATFSDRMLEIGIKYKKQLTALVVVICLAAGGTLFWMQKTKVDEVQASLALAKITPWIEMGDVNKAVNGEGSIKGLNSIIKTWGGTPSGKTARLYMAYILLNSGKPDDALSIYKGFSSDNKDLQASALAGAAACHVQKKAFAEAAPEYEKASETAENETLKSMYLTKAAESYSAAGQADKAAKLYDQVIKTWPATSSAGMAQRALLRLAGAGVQIPQI | failed
14 | QLRDFSSIIQTCSGNIQRISQATAQIKNLMSQLGTKQDSSKLQENLQQLQHSTNQLAKETNELLKELGSLPLPLSTSEQRQQRLQKERLMNDFSAALNNFQAVQRRVSEKEKESIAR | not failed
15 | MNAIREGVRALCAEFDAAYWRRIDEQRGFPEAFVKALTDAGWLSAMIPEEYGGSGLGLAEASVILEEVNRCGGNSGTVHGQMYNMFTLLRNGSEAQKRFYLPKLASGELRLQSMGVTEPTTGTDTTKIKTTAVRKGDRYVINGQKVWISRIQHSDLMILLARTTPLAEVKRKSEGMSIFLVDLREAIGKGLTVQPIANMVNHETNELFFDNLEIPADSLIGEEGKGFRYILDGLNAERTLIAAECIGDGRWFIDKASHYARDRVVFGRPIGQNQGVQFPIAEAHIEVEAADLMRWRACQEYDAGLNAGASANMAKYLAAKASWEAANACLQTHGGFGFACEYDVERKFRETRLYQVAPISTNLILSYVAEHLLELPRSF | failed
16 | MSQPSALPAADSLAALHPGFKSSALVWLGVMVALWGFSWPVMKICVGLAPPLWLAAIRFTSSGLCLFAFLACRGELRLPPRADWPIVASVGGLQMMAFTGLGLVAMQYTDAGRAALLAYTTPLWAVVTAWIAFGQRPTAAQGVALCVGLSGVAVICSPADMDWGDSTVLLGNALLLLSAMCWSFVILHVRRHRFTARPIDLAPWQMLLAALPLIVIAASVDGSPLTIAWTPELIGFLIYFGPIATSACFVISSEYGRRVSAFAMSNITLGVPVIGMLSSIFLLGERVTVPLIIGLTLIVSGVALAALAVNRKAAAGRADTALRSQAGKANWPTA | failed
17 | MRVEIWSDIACPWCYVGKARFEKALAAFPHRDGVEVVHRSFELDPGRAKDDVQPVLTMLTAKYGMSQEQAQAGEDNLGAQAAAEGLAYRTRDRDHGSTFDLHRLLHLAKERGRHEALLDAFYRGNFADERSVFNDDERLVELAVGAGLDAEEVRAVLADPAAYADEVRADEREAAQLGATGVPFFVLDRAYGVSGAQPAEVFTQALTQAWGERTPLKLIDDGGAEACGPDGCAVPGH | not failed
18 | MFEMGIQELVKTIDTNINHMISLSVLNLAQLGIKYGIFKAVASRPSYEELLSQIPVPNKPLLKKLIEHLKALGIIEETPSNLILNGFSYVLKFPKEDYMLLLSDWIPIWEEIYKMVDFALISYSHPYVLMDFDKDADFWDIRLSSSFNKTYRDAIINLGEIREDSYILDLGCGSVSPAYFGKFISEDGKYVGVDYSPGLLEIARERVERNGLPAELKEMDVSLIRTRSKYDVAIMSFLLEYVRDREEVLGKVLEALDSGGKLIIVEAFRDEFENIQAMEFFESLNRSFVGYPAKAEIKKAILREGFDVSFEDYGKSILVVRKL | failed
